In patent publication US20150258192A1, “COMPOSITIONS AND METHODS FOR PREVENTING OR TREATING CHRONIC LUNG ALLOGRAFT DYSFUNCTION (CLAD) AND IDIOPATHIC PULMONARY FIBROSIS (IPF)” (priority 2014, published 2015):
No end group written: not given here.

Experiments:
Experiment in all cases: Kinase Profiling Assay
Format in all cases: biochemical
Conditions in all cases: peptide 100 μM
PKCμ(h) = molecular target: T1, PKCμ(h) (Homo sapiens, UniProt Q15139)
T1 sequence (Q15139 1-912): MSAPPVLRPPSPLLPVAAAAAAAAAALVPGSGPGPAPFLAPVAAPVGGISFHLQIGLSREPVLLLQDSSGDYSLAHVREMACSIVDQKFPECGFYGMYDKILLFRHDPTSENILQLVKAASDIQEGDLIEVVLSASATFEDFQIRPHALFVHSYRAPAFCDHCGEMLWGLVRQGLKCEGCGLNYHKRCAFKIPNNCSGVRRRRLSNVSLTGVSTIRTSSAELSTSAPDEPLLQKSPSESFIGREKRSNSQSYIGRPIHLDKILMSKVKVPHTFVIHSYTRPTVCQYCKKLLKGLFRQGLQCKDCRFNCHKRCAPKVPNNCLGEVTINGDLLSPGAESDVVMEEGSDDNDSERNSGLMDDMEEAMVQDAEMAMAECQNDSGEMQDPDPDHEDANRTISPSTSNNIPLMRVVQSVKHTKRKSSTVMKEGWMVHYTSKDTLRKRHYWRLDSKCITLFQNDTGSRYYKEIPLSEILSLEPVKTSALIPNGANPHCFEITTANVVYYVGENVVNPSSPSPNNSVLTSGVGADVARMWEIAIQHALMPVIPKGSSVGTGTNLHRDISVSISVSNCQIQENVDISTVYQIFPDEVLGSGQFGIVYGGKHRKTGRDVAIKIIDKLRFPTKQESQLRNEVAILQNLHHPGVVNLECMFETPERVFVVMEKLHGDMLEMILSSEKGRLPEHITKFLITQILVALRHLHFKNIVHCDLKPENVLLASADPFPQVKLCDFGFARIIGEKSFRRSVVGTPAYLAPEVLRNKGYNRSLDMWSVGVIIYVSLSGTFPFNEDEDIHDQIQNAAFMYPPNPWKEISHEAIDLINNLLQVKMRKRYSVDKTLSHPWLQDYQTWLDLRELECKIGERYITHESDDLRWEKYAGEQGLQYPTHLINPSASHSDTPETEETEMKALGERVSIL
Procedure, shortened: (§1)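 Specificity of MK2 inhibitory peptides is assessed against a panel of 266 human kinases. Kinase transfers a radiolabeled phosphate from ATP onto a positively charged substrate, which is trapped on a negatively charged filter and quantified by scintillation counting against full-activity control; duplicate determinations.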

RIPK2(h) = RIPK2(h) (Homo sapiens, UniProt O43353)
Procedure, shortened: as §1

HIPK2(h) = molecular target: T2, HIPK2(h) (Homo sapiens, UniProt Q9H2X6)
T2 construct: purchased Millipore
Procedure, shortened: as §1

CK2(h) = CK2(h) (Homo sapiens, UniProt P68400)
Procedure, shortened: as §1

TrkA(h) = TrkA(h) (Homo sapiens, UniProt P04629)
Procedure, shortened: as §1

Abl(h) = Abl(h) (Homo sapiens, UniProt P00519)
Procedure, shortened: as §1

Flt4(h) = Flt4(h) (Homo sapiens, UniProt P35916)
Procedure, shortened: as §1

JAK2(h) = molecular target: T3, JAK2(h) (Homo sapiens, UniProt O60674)
T3 construct: purchased Millipore
Procedure, shortened: as §1

JNK1α1(h) = molecular target: T4, JNK1α1(h) (Homo sapiens, UniProt P45983)
T4 construct: purchased Millipore
Procedure, shortened: as §1

Met(D1246H)(h) = molecular target: T5, Met(D1246H)(h) (Homo sapiens, UniProt P08581, D1228H)
T5 construct: purchased Millipore
Procedure, shortened: as §1

Rsk4(h) = molecular target: T6, Rsk4(h) (Homo sapiens, UniProt Q9UK32)
T6 construct: purchased Millipore
Procedure, shortened: as §1

ALK4(h) = molecular target: T7, ALK4(h) (Homo sapiens, UniProt P36896)
T7 sequence (P36896 24-505): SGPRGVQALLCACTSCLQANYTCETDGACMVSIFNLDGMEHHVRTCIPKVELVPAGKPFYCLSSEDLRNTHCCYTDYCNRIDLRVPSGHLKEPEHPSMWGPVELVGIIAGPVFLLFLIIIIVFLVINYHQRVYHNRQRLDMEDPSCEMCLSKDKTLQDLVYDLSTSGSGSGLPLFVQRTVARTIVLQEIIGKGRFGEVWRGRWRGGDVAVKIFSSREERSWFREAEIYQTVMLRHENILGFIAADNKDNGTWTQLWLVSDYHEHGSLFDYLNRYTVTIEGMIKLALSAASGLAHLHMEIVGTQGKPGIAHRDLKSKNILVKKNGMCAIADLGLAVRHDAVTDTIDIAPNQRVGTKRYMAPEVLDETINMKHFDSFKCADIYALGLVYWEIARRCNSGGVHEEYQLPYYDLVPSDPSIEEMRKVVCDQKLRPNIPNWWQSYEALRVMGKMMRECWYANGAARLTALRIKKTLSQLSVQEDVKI
Procedure, shortened: as §1

cSRC(h) = cSRC(h) (Homo sapiens, UniProt P12931)
Procedure, shortened: as §1

cKit(V654A)(h) = cKit(V654A)(h) (Homo sapiens, UniProt P10721, V654A)
Procedure, shortened: as §1

Met(M1268T)(h) = molecular target: T8, Met(M1268T)(h) (Homo sapiens, UniProt P08581, M1250T)
T8 construct: purchased Millipore
Procedure, shortened: as §1

Met(Y1248H)(h) = molecular target: T9, Met(Y1248H)(h) (Homo sapiens, UniProt P08581, Y1230H)
T9 construct: purchased Millipore
Procedure, shortened: as §1

MRCKα(h) = molecular target: T10, MRCKα(h) (Homo sapiens, UniProt Q5VT25)
T10 construct: purchased Millipore
Procedure, shortened: as §1

Flt4(h), sequence (P35916 25-1363): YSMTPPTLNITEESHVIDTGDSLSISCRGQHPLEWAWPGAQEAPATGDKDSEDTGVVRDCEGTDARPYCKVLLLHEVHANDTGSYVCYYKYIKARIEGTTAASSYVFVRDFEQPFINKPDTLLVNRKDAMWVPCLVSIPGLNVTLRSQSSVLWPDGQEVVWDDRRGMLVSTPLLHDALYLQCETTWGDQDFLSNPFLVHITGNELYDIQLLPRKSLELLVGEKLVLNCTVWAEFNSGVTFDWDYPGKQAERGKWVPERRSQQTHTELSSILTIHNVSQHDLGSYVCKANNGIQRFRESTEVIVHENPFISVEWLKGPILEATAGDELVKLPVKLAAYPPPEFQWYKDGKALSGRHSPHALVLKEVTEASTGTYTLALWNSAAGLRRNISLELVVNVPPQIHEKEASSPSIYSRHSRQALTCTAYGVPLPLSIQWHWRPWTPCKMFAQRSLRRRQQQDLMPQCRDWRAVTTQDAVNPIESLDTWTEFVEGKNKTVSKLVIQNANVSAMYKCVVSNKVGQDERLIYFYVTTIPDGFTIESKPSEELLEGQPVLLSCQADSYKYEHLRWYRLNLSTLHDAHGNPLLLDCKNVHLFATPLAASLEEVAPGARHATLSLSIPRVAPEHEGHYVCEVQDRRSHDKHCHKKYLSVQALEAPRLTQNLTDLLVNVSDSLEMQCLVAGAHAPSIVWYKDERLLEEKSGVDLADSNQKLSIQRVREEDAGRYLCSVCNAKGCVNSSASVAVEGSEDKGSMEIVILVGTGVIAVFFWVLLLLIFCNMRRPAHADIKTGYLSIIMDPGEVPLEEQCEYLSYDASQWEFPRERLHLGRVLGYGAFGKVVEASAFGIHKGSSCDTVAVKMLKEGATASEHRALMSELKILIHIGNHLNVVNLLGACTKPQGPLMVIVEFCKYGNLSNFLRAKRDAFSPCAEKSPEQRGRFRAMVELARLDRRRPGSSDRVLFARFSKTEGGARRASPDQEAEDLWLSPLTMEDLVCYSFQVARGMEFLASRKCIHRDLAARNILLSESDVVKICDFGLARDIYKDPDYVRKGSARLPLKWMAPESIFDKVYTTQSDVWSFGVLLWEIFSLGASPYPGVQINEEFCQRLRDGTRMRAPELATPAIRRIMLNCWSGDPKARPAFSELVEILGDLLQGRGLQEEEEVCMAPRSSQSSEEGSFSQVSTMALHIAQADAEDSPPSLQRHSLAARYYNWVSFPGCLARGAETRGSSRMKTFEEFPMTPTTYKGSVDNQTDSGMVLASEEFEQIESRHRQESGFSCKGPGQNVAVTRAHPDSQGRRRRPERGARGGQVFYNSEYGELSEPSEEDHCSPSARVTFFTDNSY
T6 sequence (Q9UK32 whole entry): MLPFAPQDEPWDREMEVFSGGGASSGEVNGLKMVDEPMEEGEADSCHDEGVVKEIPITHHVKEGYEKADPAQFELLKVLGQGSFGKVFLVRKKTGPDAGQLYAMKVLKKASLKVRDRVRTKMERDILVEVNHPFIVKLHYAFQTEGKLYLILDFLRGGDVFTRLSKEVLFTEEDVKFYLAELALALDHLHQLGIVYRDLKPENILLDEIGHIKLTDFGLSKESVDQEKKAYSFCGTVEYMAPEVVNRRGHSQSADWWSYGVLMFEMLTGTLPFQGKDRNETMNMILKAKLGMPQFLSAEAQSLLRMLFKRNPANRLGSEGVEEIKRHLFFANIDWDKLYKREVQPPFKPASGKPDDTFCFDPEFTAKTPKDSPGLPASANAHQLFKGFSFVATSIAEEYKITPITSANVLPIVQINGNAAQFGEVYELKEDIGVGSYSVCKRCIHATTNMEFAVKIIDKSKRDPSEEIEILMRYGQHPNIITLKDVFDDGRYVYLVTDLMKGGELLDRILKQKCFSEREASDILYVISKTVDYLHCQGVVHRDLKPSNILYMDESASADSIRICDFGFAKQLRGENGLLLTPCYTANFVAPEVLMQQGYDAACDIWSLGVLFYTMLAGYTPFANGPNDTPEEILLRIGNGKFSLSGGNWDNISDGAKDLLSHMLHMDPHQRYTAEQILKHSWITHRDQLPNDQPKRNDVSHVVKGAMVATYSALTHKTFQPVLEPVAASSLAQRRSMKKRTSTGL
T10 sequence (Q5VT25 whole entry): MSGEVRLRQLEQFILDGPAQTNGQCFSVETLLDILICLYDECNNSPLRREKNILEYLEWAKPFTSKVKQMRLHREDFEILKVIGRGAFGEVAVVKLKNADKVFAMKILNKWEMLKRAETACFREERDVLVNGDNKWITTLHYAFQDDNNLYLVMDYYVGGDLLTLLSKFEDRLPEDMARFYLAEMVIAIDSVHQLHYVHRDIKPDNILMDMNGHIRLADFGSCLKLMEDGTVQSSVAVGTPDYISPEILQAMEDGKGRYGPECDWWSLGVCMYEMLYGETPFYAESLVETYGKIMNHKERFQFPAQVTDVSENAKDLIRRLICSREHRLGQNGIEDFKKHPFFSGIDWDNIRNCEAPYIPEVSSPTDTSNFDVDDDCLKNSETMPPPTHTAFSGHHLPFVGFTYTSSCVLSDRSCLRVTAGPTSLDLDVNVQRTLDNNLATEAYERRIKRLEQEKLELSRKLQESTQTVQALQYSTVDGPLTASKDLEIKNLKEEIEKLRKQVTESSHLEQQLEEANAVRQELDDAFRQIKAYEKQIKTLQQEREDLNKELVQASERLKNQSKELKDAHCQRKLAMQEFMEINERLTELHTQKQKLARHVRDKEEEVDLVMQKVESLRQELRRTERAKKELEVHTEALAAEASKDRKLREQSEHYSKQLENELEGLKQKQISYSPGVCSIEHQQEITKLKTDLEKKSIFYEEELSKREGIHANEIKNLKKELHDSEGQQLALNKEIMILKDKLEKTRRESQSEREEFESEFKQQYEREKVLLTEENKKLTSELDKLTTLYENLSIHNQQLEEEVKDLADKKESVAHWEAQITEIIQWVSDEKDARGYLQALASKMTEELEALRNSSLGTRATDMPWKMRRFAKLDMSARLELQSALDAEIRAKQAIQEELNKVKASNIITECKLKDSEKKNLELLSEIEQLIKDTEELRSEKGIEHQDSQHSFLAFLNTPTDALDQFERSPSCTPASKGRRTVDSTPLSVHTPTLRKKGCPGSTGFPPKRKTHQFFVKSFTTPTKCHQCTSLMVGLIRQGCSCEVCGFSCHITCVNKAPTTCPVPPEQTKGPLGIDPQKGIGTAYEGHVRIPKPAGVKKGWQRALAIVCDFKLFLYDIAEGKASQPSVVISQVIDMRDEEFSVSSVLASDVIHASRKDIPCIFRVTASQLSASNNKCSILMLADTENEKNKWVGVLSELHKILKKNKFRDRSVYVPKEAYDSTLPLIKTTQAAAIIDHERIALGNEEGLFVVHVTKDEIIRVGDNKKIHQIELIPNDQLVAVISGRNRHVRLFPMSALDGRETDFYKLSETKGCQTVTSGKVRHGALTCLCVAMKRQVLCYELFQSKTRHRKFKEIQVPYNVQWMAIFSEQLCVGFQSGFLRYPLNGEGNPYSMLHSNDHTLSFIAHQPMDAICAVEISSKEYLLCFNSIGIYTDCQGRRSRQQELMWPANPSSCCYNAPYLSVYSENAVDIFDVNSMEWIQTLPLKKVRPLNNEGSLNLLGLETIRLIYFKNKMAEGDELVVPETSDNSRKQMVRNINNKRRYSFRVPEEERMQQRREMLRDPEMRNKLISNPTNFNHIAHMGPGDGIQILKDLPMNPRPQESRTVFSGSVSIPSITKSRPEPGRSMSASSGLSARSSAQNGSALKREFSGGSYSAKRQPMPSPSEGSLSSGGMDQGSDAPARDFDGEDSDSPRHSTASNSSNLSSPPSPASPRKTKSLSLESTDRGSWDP
CK2(h), sequence (P68400 whole entry): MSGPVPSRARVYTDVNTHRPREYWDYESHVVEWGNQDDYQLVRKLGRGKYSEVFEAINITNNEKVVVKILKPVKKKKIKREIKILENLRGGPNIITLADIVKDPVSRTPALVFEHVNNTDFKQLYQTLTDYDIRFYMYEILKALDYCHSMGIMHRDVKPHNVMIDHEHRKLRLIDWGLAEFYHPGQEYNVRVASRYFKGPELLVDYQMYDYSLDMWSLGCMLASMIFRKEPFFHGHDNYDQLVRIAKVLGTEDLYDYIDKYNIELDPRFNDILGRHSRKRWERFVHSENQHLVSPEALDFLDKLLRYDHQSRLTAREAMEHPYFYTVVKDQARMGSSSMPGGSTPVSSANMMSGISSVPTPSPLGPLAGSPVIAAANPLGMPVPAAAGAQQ
CK2(h), sequence (P67870 whole entry partner): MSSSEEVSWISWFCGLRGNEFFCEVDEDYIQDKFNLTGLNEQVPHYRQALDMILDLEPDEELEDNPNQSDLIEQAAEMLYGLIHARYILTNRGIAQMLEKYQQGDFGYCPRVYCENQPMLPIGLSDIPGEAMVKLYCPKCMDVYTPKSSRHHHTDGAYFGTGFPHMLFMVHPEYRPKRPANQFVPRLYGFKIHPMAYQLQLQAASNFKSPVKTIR
RIPK2(h), sequence (O43353 whole entry): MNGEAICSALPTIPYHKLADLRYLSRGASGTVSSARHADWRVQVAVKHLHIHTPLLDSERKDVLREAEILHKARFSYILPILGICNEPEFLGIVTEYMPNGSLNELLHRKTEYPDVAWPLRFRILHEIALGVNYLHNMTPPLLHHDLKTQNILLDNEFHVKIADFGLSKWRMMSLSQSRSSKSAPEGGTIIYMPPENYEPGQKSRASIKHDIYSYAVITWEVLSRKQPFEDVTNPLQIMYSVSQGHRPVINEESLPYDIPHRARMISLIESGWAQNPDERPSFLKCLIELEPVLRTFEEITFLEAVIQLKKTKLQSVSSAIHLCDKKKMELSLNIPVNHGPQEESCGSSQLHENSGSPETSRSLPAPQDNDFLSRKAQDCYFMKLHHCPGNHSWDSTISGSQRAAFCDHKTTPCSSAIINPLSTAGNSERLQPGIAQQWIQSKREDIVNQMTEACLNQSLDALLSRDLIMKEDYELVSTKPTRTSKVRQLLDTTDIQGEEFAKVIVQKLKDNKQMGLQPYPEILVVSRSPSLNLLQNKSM

## FAKLAARLYRKALARQLGVAA [MMI-0300]
PKCμ(h)
  % activity: 22%
RIPK2(h)
  % activity: 97%
HIPK2(h)
  % activity: 73%
CK2(h)
  % activity: 90%
TrkA(h)
  % activity: 25%
Abl(h)
  % activity: 69%
Flt4(h)
  % activity: 83%
JAK2(h)
  % activity: 133%
JNK1α1(h)
  % activity: 97%
Met(D1246H)(h)
  % activity: 125%
Rsk4(h)
  % activity: 90%
ALK4(h)
  % activity: 140%
cSRC(h)
  % activity: 26%
cKit(V654A)(h)
  % activity: 134%
Met(M1268T)(h)
  % activity: 255%

## HRRIKAWLKKIKALARQLGVAA (Mammal) [MMI-0500]
PKCμ(h)
  % activity: 10%
RIPK2(h)
  % activity: 30%
HIPK2(h)
  % activity: 38%
CK2(h)
  % activity: 93%
Met(Y1248H)(h)
  % activity: 126%
TrkA(h)
  % activity: 24%
Abl(h)
  % activity: 16%
Flt4(h)
  % activity: 73%
JAK2(h)
  % activity: 49%
MRCKα(h)
  % activity: 5%
Met(D1246H)(h)
  % activity: 150%
Rsk4(h)
  % activity: 29%
ALK4(h)
  % activity: 81%
cSRC(h)
  % activity: 30%
cKit(V654A)(h)
  % activity: 223%
Met(M1268T)(h)
  % activity: 239%

## KAFAKLAARLYRKALARQLGVAA [MMI-0400]
PKCμ(h)
  % activity: 14%
RIPK2(h)
  % activity: 98%
HIPK2(h)
  % activity: 90%
CK2(h)
  % activity: 101%
Met(Y1248H)(h)
  % activity: 63%
TrkA(h)
  % activity: 17%
Abl(h)
  % activity: 84%
Flt4(h)
  % activity: 89%
JNK1α1(h)
  % activity: 98%
MRCKα(h)
  % activity: 97%
Met(D1246H)(h)
  % activity: 68%
Rsk4(h)
  % activity: 91%
ALK4(h)
  % activity: 130%
cSRC(h)
  % activity: 14%
cKit(V654A)(h)
  % activity: 150%
Met(M1268T)(h)
  % activity: 265%

## YARAAARQARAKALARQLGVAA [MMI-0100]
PKCμ(h)
  % activity: 79%
HIPK2(h)
  % activity: 98%
Met(Y1248H)(h)
  % activity: 88%
TrkA(h)
  % activity: 74%
Flt4(h)
  % activity: 135%
JAK2(h)
  % activity: 89%
JNK1α1(h)
  % activity: 91%
MRCKα(h)
  % activity: 98%
Met(D1246H)(h)
  % activity: 99%
Rsk4(h)
  % activity: 99%
ALK4(h)
  % activity: 124%
cKit(V654A)(h)
  % activity: 69%

## YARAAARQARAKALNRQLGVA (Mammal) [MMI-0200]
PKCμ(h)
  % activity: 73%
RIPK2(h)
  % activity: 98%
CK2(h)
  % activity: 83%
Met(Y1248H)(h)
  % activity: 153%
JAK2(h)
  % activity: 131%
Met(D1246H)(h)
  % activity: 139%
Rsk4(h)
  % activity: 125%
ALK4(h)
  % activity: 152%
cSRC(h)
  % activity: 32%
Met(M1268T)(h)
  % activity: 143%
